± gives the standard deviation of the averaged measurements.
Test system: ATP
Test: switch fluorescence ratio, 500 uM ATP over buffer (Cy3 cluster intensity, sum of 5 cycles each) (fold (ratio)); higher = stronger signal-on switching upon ATP binding; sequences stand for … in TCGTCGGCAGCGTCAGATGTGTATAAGAGACAGTTTTTTTTTTTTTTTTTTTTTTTTT…TC
Details: aptamer strand: ATP DNA aptamer (quencher-CACCTGGGGGAGTATTGCGGAGGAAGG + anchor), 100 nM annealed; ATP concentration: 500 uM
Method in brief: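 After annealing to 100 nM quencher-labelled ATP aptamer, Cy3-labelled switching-strand clusters on a modified Illumina MiSeq flow-cell were imaged in selection buffer. A second image followed after 15 min with 500 uM ATP at 22 °C, and five such buffer/ATP cycles were done, each separated by NaOH stripping and re-annealing. The fluorescence ratio, averaged per switch-domain sequence, is summed target-cycle over summed buffer-cycle Cy3 intensity per cluster, with clusters outside 100-1000 RFU excluded.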
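Note: ATP exposure 15 min at 22 °C before imaging.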

Sequence | switch fluorescence ratio
CGTGAATTTG | 0.987 ± 0.026
CGTGACCAGG | 1.14 ± 0.029
CGTGACGGGG | 0.978 ± 0.043
CGTGAGTTGG | 0.992 ± 0.014
CGTGATCAGA | 0.996 ± 0.039
CGTGATGAGG | 0.989 ± 0.028
CGTGATTGCT | 1.03 ± 0.074
CGTGATTTTT | 1 ± 0.041
CGTGCAGCGG | 1 ± 0.014
CGTGCAGGGG | 1.057 ± 0.0013
CGTGCGGCGT | 0.9829 ± 0.0026
CGTGCTGGGA | 1.03 ± 0.033
CGTGCTTGTA | 1.01 ± 0.025
CGTGCTTTCT | 0.999 ± 0.029
CGTGGAGTGG | 0.996 ± 0.029
CGTGGATGCG | 1.025 ± 0.0038
CGTGGATGGT | 0.9933 ± 0.0032
CGTGGATTTT | 0.972 ± 0.034
CGTGGCCGTT | 0.978 ± 0.095
CGTGGCCTGG | 0.994 ± 0.024
CGTGGCGCGG | 0.9942 ± 0.0096
CGTGGCTAAG | 0.971 ± 0.046
CGTGGGAATA | 0.9992 ± 0.0082
CGTGGGAGAA | 1.09 ± 0.084
CGTGGGAGGG | 0.99 ± 0.011

Sequence | switch fluorescence ratio
CGTGGGGACT | 0.991 ± 0.027
CGTGGGGCGA | 1.03 ± 0.025
CGTGGGGGTA | 0.996 ± 0.025
CGTGGGTAGA | 1.06 ± 0.09
CGTGGTGGGG | 0.992 ± 0.015
CGTGGTTATG | 0.975 ± 0.06
CGTGTAAATA | 0.995 ± 0.015
CGTGTAAGAT | 1.03 ± 0.047
CGTGTAATTC | 1.03 ± 0.1
CGTGTACCGG | 1.01 ± 0.0092
CGTGTAGGGG | 1.03 ± 0.017
CGTGTAGTCC | 1.1 ± 0.086
CGTGTGAGAG | 0.986 ± 0.021
CGTGTGGTTC | 1.02 ± 0.036
CGTGTGTACC | 1.007 ± 0.0049
CGTGTGTGTA | 1.07 ± 0.05
CGTGTGTTGC | 1 ± 0.024
CGTGTTTGCG | 0.985 ± 0.031
CGTGTTTTTG | 0.986 ± 0.02
CGTTAAAGAT | 1.03 ± 0.023
CGTTAAGGCT | 0.973 ± 0.015
CGTTAAGTTC | 0.993 ± 0.029
CGTTAATTCG | 1 ± 0.028
CGTTACAGGT | 1.04 ± 0.028
CGTTACTTAG | 1.02 ± 0.011

Sequence | switch fluorescence ratio
CGTTACTTTT | 1.02 ± 0.053
CGTTAGTTTT | 0.9924 ± 0.0021
CGTTATAAAG | 0.9811 ± 0.0012
CGTTATACTG | 1.07 ± 0.027
CGTTATAGTC | 1.02 ± 0.047
CGTTATCGTC | 0.99 ± 0.0099
CGTTCATTAG | 1.003 ± 0.0076
CGTTCTAGTT | 1.001 ± 0.01
CGTTCTATGT | 1.01 ± 0.02
CGTTCTCCCC | 1.03 ± 0.068
CGTTCTGGAG | 1.2 ± 0.038
CGTTGAAAGT | 0.991 ± 0.015
CGTTGATAAG | 0.997 ± 0.022
CGTTGATCAG | 0.976 ± 0.024
CGTTGATGGT | 0.992 ± 0.02
CGTTGCATTG | 1.03 ± 0.017
CGTTGCTGAT | 0.972 ± 0.035
CGTTGGAATA | 1.01 ± 0.042
CGTTGGAATG | 0.981 ± 0.015
CGTTGGCCGT | 1.03 ± 0.085
CGTTGGGACG | 1.0042 ± 0.00087
CGTTGGGAGG | 0.979 ± 0.016
CGTTGGGGCA | 1 ± 0.077
CGTTGGGGCG | 0.931 ± 0.035
CGTTGGGGTG | 1.03 ± 0.063

Sequence | switch fluorescence ratio
CGTTGGGTTC | 0.969 ± 0.013
CGTTGTGGCA | 1 ± 0.028
CGTTGTGTAG | 1.02 ± 0.013
CGTTGTTCGT | 1 ± 0.0015
CGTTGTTGTA | 1.01 ± 0.02
CGTTGTTTTG | 0.9848 ± 0.0091
CGTTTAATGG | 0.984 ± 0.0086
CGTTTACGCC | 1 ± 0.046
CGTTTAGTGG | 0.9781 ± 0.0089
CGTTTATTG | 0.9967 ± 0.0085
CGTTTCGCAG | 1.03 ± 0.068
CGTTTCTAAG | 0.967 ± 0.03
CGTTTCTTTT | 0.997 ± 0.02
CGTTTGGTAG | 0.964 ± 0.019
CGTTTGTACT | 1.022 ± 0.0013
CGTTTGTGCA | 0.98971 ± 6.6e-05
CGTTTGTGTG | 1.01 ± 0.011
CGTTTTCCAG | 0.985 ± 0.03
CGTTTTGCGG | 1.04 ± 0.052
CGTTTTGGTT | 0.976 ± 0.021
CGTTTTTTGT | 0.9843 ± 0.002
CTAAAATGCT | 1.042 ± 0.0088
CTAAACGTCA | 1.1 ± 0.051
CTAAAGTGGG | 0.973 ± 0.015
CTAAATTTTA | 0.989 ± 0.019

Sequence | switch fluorescence ratio
CTAACAGCGA | 1.297 ± 0.0027
CTAACCATCT | 1.028 ± 0.0038
CTAACGAGGG | 0.9731 ± 0.0043
CTAACGGTTT | 0.976 ± 0.028
CTAACTAAGG | 1.015 ± 0.0095
CTAAGATAGG | 1.01 ± 0.029
CTAAGGAGGG | 0.989 ± 0.021
CTAAGTCGAG | 0.966 ± 0.037
CTAAGTTCTT | 0.987 ± 0.008
CTAATAATCG | 1 ± 0.015
CTAATATCAC | 1.02 ± 0.012
CTAATATTAG | 1 ± 0.086
CTAATGGAAA | 0.998 ± 0.026
CTAATGGACA | 1.01 ± 0.025
CTAATTTAGT | 1.01 ± 0.014
CTAATTTTTC | 0.9878 ± 0.0026
CTACAAAAAA | 1.02 ± 0.034
CTACATCTTA | 1.02 ± 0.018
CTACGGGGCT | 1.01 ± 0.02
CTACGTTGGA | 1.03 ± 0.02
CTACTAATTA | 1.026 ± 0.0031
CTACTGCCGT | 1.02 ± 0.034
CTACTTTTTT | 1.01 ± 0.023
CTAGCACGGA | 0.9713 ± 0.0093
CTAGCATGGG | 0.999 ± 0.029

Sequence | switch fluorescence ratio
CTAGCTGACC | 1.11 ± 0.046
CTAGCTGCGA | 1.08 ± 0.055
CTAGCTGTAG | 1.04 ± 0.03
CTAGGAGGGC | 1 ± 0.027
CTAGGATCTA | 0.996 ± 0.062
CTAGGCCGGG | 0.98 ± 0.025
CTAGGCTAGG | 0.9885 ± 0.0012
CTAGGGAAAG | 0.989 ± 0.057
CTAGGGCATA | 1.05 ± 0.047
CTAGGGCGGA | 1.01 ± 0.021
CTAGGGGAGA | 1.018 ± 0.0038
CTAGGGGGGA | 0.997 ± 0.0052
CTAGGTAAAC | 1.06 ± 0.012
CTAGGTACTT | 1.03 ± 0.037
CTAGGTGATC | 1.07 ± 0.044
CTAGGTGCAA | 1.19 ± 0.091
CTAGGTTCTG | 1.015 ± 0.0043
CTAGTAAAGT | 0.977 ± 0.037
CTAGTATGGA | 1.02 ± 0.031
CTAGTTAAAC | 1.01 ± 0.02
CTAGTTGATG | 0.991 ± 0.022
CTAGTTGGAT | 0.9908 ± 0.0053
CTAGTTTGAG | 1.01 ± 0.01
CTATACGGCA | 1.09 ± 0.011
CTATACTTGG | 0.98716 ± 0.00098

Sequence | switch fluorescence ratio
CTATATTTTT | 1.01 ± 0.025
CTATCATAGT | 0.98 ± 0.032
CTATCATCAT | 0.9978 ± 0.0084
CTATCTATTG | 0.9923 ± 0.0014
CTATGAGTTT | 0.993 ± 0.013
CTATGGAGTG | 0.9928 ± 0.0039
CTATGTTGGT | 0.9562 ± 0.0062
CTATGTTTTG | 0.979 ± 0.017
CTATTACTTA | 1.02 ± 0.032
CTATTAGATG | 0.994 ± 0.03
CTATTAGGGT | 0.999 ± 0.052
CTATTGAATC | 1.022 ± 0.0015
CTATTGATGG | 0.996 ± 0.015
CTATTTAGTC | 0.9496 ± 0.0052
CTCAAATATG | 1.002 ± 0.0051
CTCACCCGGA | 1.18 ± 0.012
CTCACGACGT | 1.07 ± 0.019
CTCACTATGA | 0.99239 ± 0.0009
CTCAGAAACG | 1.03 ± 0.04
CTCAGATGAT | 0.988 ± 0.013
CTCAGGCTTG | 0.997 ± 0.052
CTCAGGTGTT | 1.73 ± 1
CTCATAGCGC | 1.02 ± 0.035
CTCATATTCA | 1.02 ± 0.027
CTCATTAAGG | 1.01 ± 0.016

Sequence | switch fluorescence ratio
CTCCAAGTGA | 1.315 ± 0.0062
CTCCAATAGT | 1.79 ± 0.044
CTCCGAATTT | 2.17 ± 0.35
CTCCGAGGGG | 1.31 ± 0.21
CTCCGGGCGA | 4.47 ± 1
CTCCGGGGTT | 1.85 ± 0.35
CTCCTAAATG | 1.19 ± 0.015
CTCCTAGTCA | 1.05 ± 0.061
CTCCTCGTGC | 3.49 ± 0.47
CTCCTGGACT | 1.069 ± 0.0061
CTCGAAGTTG | 0.9692 ± 0.0025
CTCGCCAGGG | 1.41 ± 0.032
CTCGGACGGG | 0.995 ± 0.046
CTCGGGATGG | 1.74 ± 0.98
CTCGGGCATT | 1.23 ± 0.052
CTCGGGGATG | 0.976 ± 0.013
CTCGGGGTTG | 1.022 ± 0.008
CTCGTAGCAG | 1.17 ± 0.013
CTCGTCCCCG | 0.994 ± 0.06
CTCGTGCCCG | 1.05 ± 0.075
CTCGTGGCGG | 1.02 ± 0.076
CTCGTTCTAT | 1.002 ± 0.0057
CTCGTTGAAG | 0.979 ± 0.032
CTCGTTGGGG | 0.979 ± 0.015
CTCGTTGTGG | 1.25 ± 0.37
